Key:
Mouse ASGR-1 = target: T1, Mouse ASGR-1 (mouse, UniProt P34927 1-284); experiment: FACS on transfected HEK 293 cells or membrane preps on beads; Y = signal at least 2x irrelevant IgG
T1 construct: Expressed on HEK 293 cells or as membrane prep on beads; cDNA GenBank BC022106.1; also called muASGR-1; mASGR-1
T1 sequence: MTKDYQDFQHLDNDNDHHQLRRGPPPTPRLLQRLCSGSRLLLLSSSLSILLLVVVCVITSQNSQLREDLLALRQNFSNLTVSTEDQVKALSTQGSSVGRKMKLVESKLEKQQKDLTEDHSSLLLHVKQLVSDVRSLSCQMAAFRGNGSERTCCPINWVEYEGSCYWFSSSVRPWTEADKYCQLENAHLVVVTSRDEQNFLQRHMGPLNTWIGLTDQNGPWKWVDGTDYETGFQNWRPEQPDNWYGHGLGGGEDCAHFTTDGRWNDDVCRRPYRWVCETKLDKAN
Outline: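 Antibodies at normalized concentrations bound 1 h at 4° C to HEK 293 cells expressing each antigen, then Alexa Fluor 647 anti-Fc plus 7-AAD 15 min at 4° C, flow cytometry; empty-vector cells as negative. Alternatively, species ASGR-1 membrane preps on streptavidin beads, antibody 1 h RT, Alexa Fluor 488 anti-Fc; FACS buffer with 1 mM CaCl2 throughout.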

Human ASGR-2 = target: T2, Human ASGR-2 (human, UniProt P07307 1-311); experiment: FACS on transfected HEK 293 cells; Y = signal at least 2x irrelevant IgG
T2 construct: Expressed on HEK 293 cells; cDNA GenBank NM_080913.3; also called huASGR-2; hASGR-2
T2 sequence: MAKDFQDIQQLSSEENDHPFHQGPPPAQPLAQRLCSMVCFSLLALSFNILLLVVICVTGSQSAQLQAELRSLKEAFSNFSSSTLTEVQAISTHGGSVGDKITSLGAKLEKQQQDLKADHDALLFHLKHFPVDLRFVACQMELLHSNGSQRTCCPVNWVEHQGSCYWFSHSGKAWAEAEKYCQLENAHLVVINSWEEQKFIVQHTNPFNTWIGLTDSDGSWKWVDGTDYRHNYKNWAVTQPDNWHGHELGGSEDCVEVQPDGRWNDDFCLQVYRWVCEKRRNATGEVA
Procedure: Human ASGR-1-specific, ligand competing antibody samples were tested for binding to ASGR-1 from other species (cynomologus monkey ASGR-1, mouse ASGR-1, rat ASGR-1, dog ASGR-1, and pig ASGR-1) as well as to human ASGR-2 in FACS binding assays at normalized antibody concentrations. For cell-based assays, HEK 293 cells expressing the appropriate antigen of interest were mixed with antibody sample or controls, incubated for 1 hour at 4° C., and then washed twice. Cells with bound antibody were then incubated with Alexa Fluor® 647 IgG Fc fragment-specific detection antibody and 7-AAD viability stain for 15 minutes at 4° C., washed once and resuspended in FACS buffer. Samples were analyzed using a BD Accuri™ Flow Cytometer and an Intellicyt HyperCyt Autosampler. As a negative control, supernatants and controls were also screened against HEK 293 cells transfected with empty parental vector. […] For membrane-prep binding assays, ASGR-1 species specific membrane preps were used to coat LumAvidin® microspheres (beads) and tested for binding to selected hybridoma supernatants or controls. Briefly, ASGR-1 species specific membrane preps were incubated with streptavidin-coated LumAvidin® beads for 45 minutes in the dark at room temperature and washed twice. Beads were resuspeneded in FACS buffer containing Stabilguard®. […] Samples were analyzed using an Intellicyt iQue™ Screener Platform. […]

Binder	binding result (Mouse ASGR-1)	binding result (Human ASGR-2)
12D2 (antibody, V domains shown, Tested as hybridoma supernatant at normalized concentration) VH: EVQLVESGGGLVKPGGSLRLSCAASGFTFSSYSMNWVRQAPGKGLEWVSSISSSSSYIYYADSVKGRFTISRDNAKNSLYLQMNSLRAEDTAVYYCARLGDYWGQGTLVAVSS VL: not shown	binds	–
184E7 (antibody, V domains shown, Tested as hybridoma supernatant at normalized concentration) VH: QVQLVQSGAEVKTPGASVKVSCRASGYTFTSYNMHWVRQVPGQGLEWMGWINPNNGGSNYTQKFQGRVTMTRDTSISTAYMELSRLRSDDTAVYYCARKFGDWGQGTLVTVSS VL: DIQMTQSPSSRSASIGERVTITCRASQGISNYLAWIQQKPGTAPKSLIYAASSLQSGVSSRFSGSGFGTDFTITISSVQREDFATYYCQQYNGYPFTFGHGTKVDIK	binds	–
6G7 (antibody, V domains shown, Tested as hybridoma supernatant at normalized concentration) VH: QVQLVESGGGVVQPGRSLRLSCAASGFTFSSYGMHWVRQTPGKGLEWVAIISYVGKNKYYADSVKGRFTISRDNSKNTLYLQMNSLRAEDTAVYYCARRGNSYGGYGMDVWGQGTTVTVSS VL: DIQMTQSPSSRSASVGDRVTITCQASQDISNYLNWCQQKPGKALKLLIYDASTLETGVPSRFSGSGSGTDFTFTISSVQPEDIATYYCQQYDNVPITFGQGTRLEIK	–	binds
4B1 (antibody, V domains shown, Tested as hybridoma supernatant at normalized concentration) VH: QVQLQESGPGLVKPSETLSLTCSVSGDSISSYSWSWIRQPAGKGLEWIGRIYTSGSTNYIPSLKSRITMSVDTSKKQFSLKLSSVTAADTAVYYCARDLKSSGCLFFDYWGQGTLVTVSS VL: DIQMTQSPSSLSASVGDRVTITCRASHTIRTYLNWYQQKPGKAPKLLIYAASSLQSGVPSRINGSGSGTDFTLTITNLQPEDFATYYCQQSYNISFTFGPGTKVDIK	binds	–
4H6 (antibody, V domains shown, Tested as hybridoma supernatant at normalized concentration) VH: QVQLVQSGAEVKKPGASVKVSCKASGYTFTDYYLHWVRQAPGQGLEWMGWIHPNSGGTNYAQKFQGRVTMTRDTSISTAYMGLSSLRSDDTAVYYCARDGTSSFDYWGQGTLVTVSS VL: DIQMTQSPSSVSASVGDRVTITCRASQGISRWLAWYQQKPGKAPKLLIYGASSLQSGVPSRFSGSGSGTDFTLTISSLQPEDFAIYYCQQANSFPFTFGPGTKVDIK	binds	–
72G9 (antibody, V domains shown, Tested as hybridoma supernatant at normalized concentration) VH: EVQLVESGGGLVKPGGSLRLSCAASGFTFSSYSMNWVRQAPGKGLEWVSSISGSSSYIYYADSVKGRFTISRDNAKNSLYLQMNSLRAEDTAVYFCARGGSRGFDPWGQGTLVTVSS VL: DIQMTQSPSSLSASVGDRVTITCRASQSITSYLNWYQQKPGKAPKLLIYTASSLQSGVPSRFSGSGSGTDFTLTISSLQPEDFATYYCQQSHSFPFTFGPGTKVDIK	binds	–
